Biological target: gbrap_human GABARAP (UniProt O95166)
Sequence (O95166 whole entry): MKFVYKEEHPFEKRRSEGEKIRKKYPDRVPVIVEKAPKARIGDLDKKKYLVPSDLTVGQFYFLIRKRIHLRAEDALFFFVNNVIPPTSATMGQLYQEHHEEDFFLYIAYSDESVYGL

Row | effect of a mutation on the interaction | Substance
1 | decreasing interaction strength | Pericentriolar material 1 protein (Homo sapiens), Q15154 D1962M
2 | with no effect | Pericentriolar material 1 protein (Homo sapiens), Q15154 S1958G
3 | with no effect | Pericentriolar material 1 protein (Homo sapiens), Q15154 N1953F
4 | with no effect | Pericentriolar material 1 protein (Homo sapiens), Q15154 L1971H
5 | with no effect | Pericentriolar material 1 protein (Homo sapiens), Q15154 S1958T
6 | with no effect | Pericentriolar material 1 protein (Homo sapiens), Q15154 K1972V
7 | disrupting interaction strength | Pericentriolar material 1 protein (Homo sapiens), Q15154 F1963P
8 | with no effect | Pericentriolar material 1 protein (Homo sapiens), Q15154 K1965R
9 | with no effect | Pericentriolar material 1 protein (Homo sapiens), Q15154 S1955L
10 | disrupting interaction strength | Pericentriolar material 1 protein (Homo sapiens), Q15154 F1963S
11 | disrupting interaction strength | Pericentriolar material 1 protein (Homo sapiens), Q15154 V1966T
12 | with no effect | Pericentriolar material 1 protein (Homo sapiens), Q15154 K1972T
13 | with no effect | Pericentriolar material 1 protein (Homo sapiens), Q15154 L1971W
14 | with no effect | Pericentriolar material 1 protein (Homo sapiens), Q15154 D1968P
15 | decreasing interaction strength | Pericentriolar material 1 protein (Homo sapiens), Q15154 P1970L
16 | with no effect | Pericentriolar material 1 protein (Homo sapiens), Q15154 K1972C
17 | with no effect | Pericentriolar material 1 protein (Homo sapiens), Q15154 E1961W
18 | disrupting interaction strength | Pericentriolar material 1 protein (Homo sapiens), Q15154 D1962Y
19 | disrupting interaction strength | Pericentriolar material 1 protein (Homo sapiens), Q15154 F1963E
20 | disrupting interaction strength | Pericentriolar material 1 protein (Homo sapiens), Q15154 V1966R
21 | disrupting interaction strength | Pericentriolar material 1 protein (Homo sapiens), Q15154 V1966A
22 | with no effect | Pericentriolar material 1 protein (Homo sapiens), Q15154 D1959E
23 | with no effect | Pericentriolar material 1 protein (Homo sapiens), Q15154 D1962E

Row | effect of a mutation on the interaction | Substance
24 | with no effect | Pericentriolar material 1 protein (Homo sapiens), Q15154 K1965T
25 | with no effect | Pericentriolar material 1 protein (Homo sapiens), Q15154 D1968W
26 | with no effect | Pericentriolar material 1 protein (Homo sapiens), Q15154 N1953K
27 | with no effect | Pericentriolar material 1 protein (Homo sapiens), Q15154 D1962T
28 | with no effect | Pericentriolar material 1 protein (Homo sapiens), Q15154 S1955E
29 | with no effect | Pericentriolar material 1 protein (Homo sapiens), Q15154 D1968H
30 | disrupting interaction strength | Pericentriolar material 1 protein (Homo sapiens), Q15154 V1966Q
31 | with no effect | Pericentriolar material 1 protein (Homo sapiens), Q15154 L1973V
32 | with no effect | Pericentriolar material 1 protein (Homo sapiens), Q15154 Q1956W
33 | with no effect | Pericentriolar material 1 protein (Homo sapiens), Q15154 G1952L
34 | with no effect | Pericentriolar material 1 protein (Homo sapiens), Q15154 K1957W
35 | decreasing interaction strength | Pericentriolar material 1 protein (Homo sapiens), Q15154 D1962R
36 | decreasing interaction strength | Pericentriolar material 1 protein (Homo sapiens), Q15154 F1963Y
37 | disrupting interaction strength | Pericentriolar material 1 protein (Homo sapiens), Q15154 D1962P
38 | with no effect | Pericentriolar material 1 protein (Homo sapiens), Q15154 L1971N
39 | with no effect | Pericentriolar material 1 protein (Homo sapiens), Q15154 L1973H
40 | with no effect | Pericentriolar material 1 protein (Homo sapiens), Q15154 L1971V
41 | with no effect | Pericentriolar material 1 protein (Homo sapiens), Q15154 L1971I
42 | with no effect | Pericentriolar material 1 protein (Homo sapiens), Q15154 K1957C
43 | with no effect | Pericentriolar material 1 protein (Homo sapiens), Q15154 L1971S
44 | with no effect | Pericentriolar material 1 protein (Homo sapiens), Q15154 K1957S
45 | with no effect | Pericentriolar material 1 protein (Homo sapiens), Q15154 D1968N
46 | disrupting interaction strength | Pericentriolar material 1 protein (Homo sapiens), Q15154 F1963R

Row | effect of a mutation on the interaction | Substance
47 | with no effect | Pericentriolar material 1 protein (Homo sapiens), Q15154 S1955W
48 | with no effect | Pericentriolar material 1 protein (Homo sapiens), Q15154 N1953R
49 | with no effect | Pericentriolar material 1 protein (Homo sapiens), Q15154 L1969N
50 | with no effect | Pericentriolar material 1 protein (Homo sapiens), Q15154 I1975Q
51 | with no effect | Pericentriolar material 1 protein (Homo sapiens), Q15154 P1970F
52 | with no effect | Pericentriolar material 1 protein (Homo sapiens), Q15154 L1973S
53 | with no effect | Pericentriolar material 1 protein (Homo sapiens), Q15154 E1960F
54 | with no effect | Pericentriolar material 1 protein (Homo sapiens), Q15154 V1964F
55 | with no effect | Pericentriolar material 1 protein (Homo sapiens), Q15154 T1974C
56 | disrupting interaction strength | Pericentriolar material 1 protein (Homo sapiens), Q15154 D1962L
57 | with no effect | Pericentriolar material 1 protein (Homo sapiens), Q15154 N1953M
58 | with no effect | Pericentriolar material 1 protein (Homo sapiens), Q15154 G1952S
59 | with no effect | Pericentriolar material 1 protein (Homo sapiens), Q15154 S1958D
60 | with no effect | Pericentriolar material 1 protein (Homo sapiens), Q15154 E1960H
61 | with no effect | Pericentriolar material 1 protein (Homo sapiens), Q15154 K1965E
62 | with no effect | Pericentriolar material 1 protein (Homo sapiens), Q15154 K1965F
63 | with no effect | Pericentriolar material 1 protein (Homo sapiens), Q15154 L1969C
64 | with no effect | Pericentriolar material 1 protein (Homo sapiens), Q15154 L1973Y
65 | with no effect | Pericentriolar material 1 protein (Homo sapiens), Q15154 S1955F
66 | with no effect | Pericentriolar material 1 protein (Homo sapiens), Q15154 I1975H
67 | with no effect | Pericentriolar material 1 protein (Homo sapiens), Q15154 L1971P
68 | with no effect | Pericentriolar material 1 protein (Homo sapiens), Q15154 E1960S
69 | with no effect | Pericentriolar material 1 protein (Homo sapiens), Q15154 L1969H

From IntAct's records for PubMed 28712572
